Assay [1] has as its target pre-formed α-synuclein oligomers (formed with the small molecule FN075) (UniProt P37840). The assay is described as follows: ITC; 200 μM IDE in the syringe, 20 μM pre-formed α-synuclein oligomers (FN075) in the cell; 20 or 30 °C; 20 mM phosphate pH 7.4, 140 mM NaCl. A general note: Isothermal titration calorimetry measures the heat released or taken up as one component is titrated into another.

Assay [2] addresses α-synuclein oligomers formed during incubation with IDE (37 °C, 48 h, agitation) (UniProt P37840).
The target is the same in assay [3]. This is another data set of the same source.

In turn, “Insulin-degrading enzyme (IDE) (from UniProt P14735 1-1019)” registered a stoichiometry N (IDE molecules per α-synuclein oligomer) in assay [1] of 3. In addition, in assay [2], the kcat of 1 μM IDE on fluorogenic substrate V after 48 h pre-incubation with 0-100 μM α-synuclein (0.020 without; highest at 100 μM) was 0.058 s⁻¹, the kcat of 3 μM IDE on fluorogenic substrate V after 48 h pre-incubation with 0-70 μM α-synuclein (0.241 without; highest at 35 μM) came out at 0.397 s⁻¹, the kcat/KM of 1 μM IDE on fluorogenic substrate V after 48 h pre-incubation with 0-100 μM α-synuclein (1010 without; highest at 100 μM) stood at 1190 M⁻¹ s⁻¹ and the kcat/KM of 3 μM IDE on fluorogenic substrate V after 48 h pre-incubation with 0-70 μM α-synuclein (25400 without; highest at 35 μM) was 30500 M⁻¹ s⁻¹. The ThT fluorescence of 70 μM α-synuclein after 48 h (37 °C, agitation) with 0.2-6.0 μM IDE; half maximal inhibition of amyloid formation (molar ratio IDE to α-synuclein) in assay [3] was determined as 0.025.
